IntAct's records for PubMed 19081061

B1: Pyruvate dehydrogenase E1 component subunit alpha, somatic form, mitochondrial (Homo sapiens), P08559-1 (parent)
chain: MRKMLAAVSRVLSGASQKPASRVLVASRNFANDATFEIKKCDLHRLEEGPPVTTVLTREDGLKYYRMMQTVRRMELKADQLYKQKIIRGFCHLCDGQEACCVGLEAGINPTDHLITAYRAHGFTFTRGLSVREILAELTGRKGGCAKGKGGSMHMYAKNFYGGNGIVGAQVPLGAGIALACKYNGKDEVCLTLYGDGAANQGQIFEAYNMAALWKLPCIFICENNRYGMGTSVERAAASTDYYKRGDFIPGLRVDGMDILCVREATRFAAAYCRSGKGPILMELQTYRYHGHSMSDPGVSYRTREEIQEVRSKSDPIMLLKDRMVNSNLASVEELKEIDVEVRKEIEDAAQFATADPEPPLEELGYHIYSSDPPFEVRGANQWIKFKSVS
partner: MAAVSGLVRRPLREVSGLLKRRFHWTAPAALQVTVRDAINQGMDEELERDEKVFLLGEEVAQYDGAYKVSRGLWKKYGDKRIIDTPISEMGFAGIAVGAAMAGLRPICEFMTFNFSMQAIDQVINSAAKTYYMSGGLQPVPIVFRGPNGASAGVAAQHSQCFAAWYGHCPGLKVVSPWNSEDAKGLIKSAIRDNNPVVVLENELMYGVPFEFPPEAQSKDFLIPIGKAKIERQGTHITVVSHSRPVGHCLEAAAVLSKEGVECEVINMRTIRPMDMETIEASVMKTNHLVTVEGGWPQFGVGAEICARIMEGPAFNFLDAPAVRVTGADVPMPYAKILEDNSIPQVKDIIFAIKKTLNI

Variants of: B1
Conditions: with PDHB
In the case of MRKMLAAVSRVLSGASQKPASRVLVASRNFANDATFEIKKCDLHRLEEGPPVTTVLTREDGLKYYRMMQTVRRMELKADQLYKQKIIRGFCHLCDGQEACCVGLEAGINPTDHLITAFRAHGFTFTRGLSVREILAELTGRKGGCAKGKGGSMHMYAKNFYGGNGIVGAQVPLGAGIALACKYNGKDEVCLTLYGDGAANQGQIFEAYNMAALWKLPCIFICENNRYGMGTSVERAAASTDYYKRGDFIPGLRVDGMDILCVREATRFAAAYCRSGKGPILMELQTYRYHGHSMSDPGVSYRTREEIQEVRSKSDPIMLLKDRMVNSNLASVEELKEIDVEVRKEIEDAAQFATADPEPPLEELGYHIYSSDPPFEVRGANQWIKFKSVS [Y118F], the “effect of a mutation on the interaction” value is reported as “with no effect”.
In the case of MRKMLAAVSRVLSGASQKPASRVLVASRNFANDATFEIKKCDLHRLEEGPPVTTVLTREDGLKYYRMMQTVRRMELKADQLYKQKIIRGFCHLCDGQEACCVGLEAGINPTDHLITAYRAHGFTFTRGLSVREILAELTGRKGGCAKGKGGSMHMYAKNFYGGNGIVGAQVPLGAGIALACKYNGKDEVCLTLYGDGAANQGQIFEAYNMAALWKLPCIFICENNRYGMGTAVERAAASTDYYKRGDFIPGLRVDGMDILCVREATRFAAAYCRSGKGPILMELQTYRYHGHSMSDPGVAYRTREEIQEVRSKSDPIMLLKDRMVNSNLASVEELKEIDVEVRKEIEDAAQFATADPEPPLEELGYHIYSSDPPFEVRGANQWIKFKSVS [S232A;S300A], the “effect of a mutation on the interaction” value is reported as “with no effect”.
